B1: MtcB (Eubacterium limosum) (protein)
chain: MIRNSLTDVFFAKDDVENLHEGVLRVLSKVGVKIENDEALGIFEQHGARVENGTVYIGEVLLNKALQTVPANFELQGFDRTVQVGLDHDPVVIPTNGTPMVLNFDGSYSDTNTDDLVNFYKLIDTSDVMQVTSEIAVDVPGLDKTKDSLLAQTALLMKYSHKPIYNILGATIHNYKKGSVAQGVRENIQFAKKYYGYDDKYVIYSGTCVISPLGVGWEAMDHFMGFIKENQPISITACSMTNLTAPGSLYGSVVEDAAAILSIVVLSQLMNPGLPVLYTSLSSMSDMRYVQLCMGAPEFALITLGHIALANFYKIPVRVGGALGDAFKADYQAGVESFVGLMAPMLSQSAMIPHGCGTMGSFNLTSYEKFIMDEETIRYLMRLRRGFEVSDKRKEKALKDITKVGPRGNFLGGRTPKEYREDNYLASEVFNRKGCKENTREEQGDIRDRARKVYDARMEAYELPDTTLEQKKLLNTELPEQYKFDI
notes: expression plasmid of earlier work
B2: MtyB (Eubacterium limosum) (protein)
chain: MLKGNLFTTFYSKDDIELIHESVLRVFNEVGVKFEYEEALELFKKHGARVEGDLVFIPEELLNKALSTIPESFEIVGPESKLEIGIGKGLVVAPTNGCPNLEDWDGNYRQTNADDLENFYKIINTSDVYGISSQVAADIPGFENCPTESALAQMAMMAKYSRKPMYNILGITPHNYKRGNAREGARECVQLIKKYMDNFDDYVCYSGMCVLPPLTVGTDALEHYFAFAEEKQPITITTCSMTNMTAPPSLMGSIVADFANMLAVAVMIQLIEPGLPVILSPFSSVSDMREVRLMTGAPEFLMIMSGHIAMGDFYRIPVRCSGALADGFTYDYQAGVESTLGALAVSLSNACILPHASGDLSNFNLLSFPKFMMDEEMLRYMKRLHDGVAISEKKANVELIKKVGPRGVYLKGRTPKDYREETYLTSPVFNRGTCNEEGRAATPPIQERAYKVYKERIESFELPDMTQAQKDLLNEHLPEKFKIK
notes: C-terminal hexahistidine tag, codon-optimized gene in pETDuet-1 co-expressed with mtqC in E. coli Tuner(DE3), separated from MtqC by anion exchange

How the values were obtained:
[1] = substrate: C[N+](C)(C)CCCC(=O)[O-]; test: UV-visible spectrophotometric MtqC methylation assay; format: biochemical, Eubacterium limosum; details: ATP, Ti(III)citrate, pH 7.2, 37 °C, anoxic
[2] = substrate: C[N+](C)(C)C[C@H](O)CC(=O)O; test: as above; format: biochemical, Eubacterium limosum; details: methyl acceptor Co(I)-MtqC 15 μM, RamQ 5 μM, ATP, Ti(III)citrate, pH 7.2, 37 °C, anoxic
[3] = methyl acceptor Co(I)-MtqC 56 μM, RamQ 4.5 μM
[4] = methyl acceptor Co(I)-MtqC 30 μM, RamQ 5 μM

| Protein | Km [1, 3] | kcat [1, 3] | Km [1, 4] | kcat [1, 4] | Km [2] | kcat [2] |
| --- | --- | --- | --- | --- | --- | --- |
| B1 | 15 ± 6 mM | 0.138 ± 0.0183 s⁻¹ |  |  |  |  |
| B2 |  |  | 3.5 ± 0.7 mM | 3 ± 0.167 s⁻¹ | 4.0 ± 0.7 mM | 6.78 ± 0.442 s⁻¹ |
